Test results published in patent publication US20220289857A1.
Where “and” joins values, the source holds several entries; their conditions need not be identical. Identical values can stand only once.

How the values were obtained:
[1] = molecular target: His-SUMO-huFn14 (soluble human Fn14 aa 28-75 with N-terminal 6xHis-SUMO tag) (human); experiment: SPR Biacore T200; His-SUMO-huFn14 amine-coupled, Fab analyte; 1:1 fit
[2] = molecular target: cynomolgus macaque Fn14-GST (cynomolgus macaque (Macaca fascicularis)); experiment: SPR Biacore T200; cyno Fn14-GST captured by anti-GST, Fab analyte; 1:1 fit
[3] = molecular target: His-SUMO-huFn14 (soluble human Fn14 aa 28-75 with N-terminal 6xHis-SUMO tag) (human); experiment: SPR Biacore T200; His-SUMO-huFn14 amine-coupled, Fab analyte; average of two runs
[4] = molecular target: cynomolgus macaque Fn14-GST (cynomolgus macaque (Macaca fascicularis)); experiment: SPR Biacore T200; cyno Fn14-GST captured by anti-GST, Fab analyte; average of two runs
[5] = molecular target: human Fn14 (full length) on cells (human) (UniProt Q9NP84); experiment: cell-based or functional assay
Sequence of human Fn14 (full length) on cells (human) (Q9NP84 28-129): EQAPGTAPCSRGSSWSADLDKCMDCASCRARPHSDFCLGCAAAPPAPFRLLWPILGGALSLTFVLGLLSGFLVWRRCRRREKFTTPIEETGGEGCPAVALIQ

Sequence of cynomolgus macaque Fn14-GST (cynomolgus macaque (Macaca fascicularis)) (chain, as listed by the source): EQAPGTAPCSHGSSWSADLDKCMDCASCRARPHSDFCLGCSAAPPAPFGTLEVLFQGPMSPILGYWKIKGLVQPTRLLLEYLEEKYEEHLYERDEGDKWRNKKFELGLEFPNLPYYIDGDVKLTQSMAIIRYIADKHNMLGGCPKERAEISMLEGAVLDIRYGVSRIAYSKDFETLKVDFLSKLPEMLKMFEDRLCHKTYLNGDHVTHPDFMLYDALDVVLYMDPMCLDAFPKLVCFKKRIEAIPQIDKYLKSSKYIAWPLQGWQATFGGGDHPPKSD
Sequence of His-SUMO-huFn14 (soluble human Fn14 aa 28-75 with N-terminal 6xHis-SUMO tag) (human) (chain, as listed by the source limits assumed): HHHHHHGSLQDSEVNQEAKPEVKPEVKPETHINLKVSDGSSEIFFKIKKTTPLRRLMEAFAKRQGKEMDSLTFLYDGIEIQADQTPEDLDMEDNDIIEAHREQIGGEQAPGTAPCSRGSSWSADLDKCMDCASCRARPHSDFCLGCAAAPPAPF

Row | Kd [1] | koff [1] | kon [1] | Kd [2] | koff [2] | kon [2] | Kd [3] | Kd [4] | ICAM-1 MFI on HRMC, 250 ng/mL rhTWEAK, mAb 0.1 µg/mL [5] | Substance
1 | 1.8 nM and 1.43 nM | 0.00304 s⁻¹ and 0.00279 s⁻¹ | 1.68e+06 M⁻¹ s⁻¹ and 1.94e+06 M⁻¹ s⁻¹ | 1.39 nM and 1.21 nM | 0.00118 s⁻¹ and 0.00202 s⁻¹ | 1.31e+06 M⁻¹ s⁻¹ and 1.68e+06 M⁻¹ s⁻¹ | 1.62 nM | 1.3 nM | – | ITEM-4 Fab (enzymatic digest)
2 | – | – | – | – | – | – | – | – | 33300 MFI | mIgG1 isotype control antibody
3 | – | – | – | – | – | – | – | – | 34700 MFI | mIgG2b isotype control antibody
